Measured values published in paper PMC5041495.

How the values were obtained:
VEGF164 = target: T1, VEGF164 (mouse, UniProt Q00731-2 27-190); experiment: BLI
T1 sequence: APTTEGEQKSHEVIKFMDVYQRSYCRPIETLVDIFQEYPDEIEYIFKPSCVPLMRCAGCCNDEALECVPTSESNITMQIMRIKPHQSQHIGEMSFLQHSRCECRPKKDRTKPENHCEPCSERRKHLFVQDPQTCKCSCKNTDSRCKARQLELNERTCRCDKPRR

alpha-thrombin [1] = target: T2, alpha-thrombin (human, UniProt P00734;P00734 328-363;364-622); experiment: BLI
VEGF165 = VEGF165 (human, UniProt P15692-4 27-191); experiment: BLI
MAPK1 = MAPK1 (UniProt P28482 1-360); experiment: BLI
alpha-thrombin [2] = target: T2, alpha-thrombin; experiment: BLI; remark: listed apart in the source
alpha-thrombin [3] = target: T2, alpha-thrombin; experiment: SPRi
alpha-thrombin [4] = target: T2, alpha-thrombin; experiment: BLI; remark: listed apart in the source

MAPK1, sequence (P28482 whole entry): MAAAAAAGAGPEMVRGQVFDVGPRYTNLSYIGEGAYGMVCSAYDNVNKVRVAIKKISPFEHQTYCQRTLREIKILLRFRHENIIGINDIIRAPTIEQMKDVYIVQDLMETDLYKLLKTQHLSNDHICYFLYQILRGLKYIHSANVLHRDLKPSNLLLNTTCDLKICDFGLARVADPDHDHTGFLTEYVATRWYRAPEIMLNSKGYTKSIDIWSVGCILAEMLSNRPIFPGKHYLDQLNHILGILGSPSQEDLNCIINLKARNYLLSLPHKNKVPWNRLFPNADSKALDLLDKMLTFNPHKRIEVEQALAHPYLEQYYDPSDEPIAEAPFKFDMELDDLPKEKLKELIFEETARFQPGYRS

## GGGAACAAAGCUGAAGUACUUACCC (structured_RNA, 2'-F pyrimidines; PS2 at 3'-phosphate of U17) [AF113-18]
VEGF164
  binding result: no binding
alpha-thrombin [1]
  Kd: 1 ± 0.1 pM
VEGF165
  binding result: no binding
MAPK1
  binding result: no binding
alpha-thrombin [2]
  Kd: 1.8 ± 0.2 pM
alpha-thrombin [3]
  Kd: 4.5 ± 0.2 pM

## GGGAACAAAGCUGAAGUACUUACCC (structured_RNA, 2'-F pyrimidines (from crystal construct; ST-2 not in material)) [AF113-1]
alpha-thrombin [4]
  Kd: 1870 ± 36 pM
VEGF164
  binding result: no binding
VEGF165
  binding result: no binding
MAPK1
  binding result: no binding
